Measured values from US20230365675A1 (published 2023).

B1: sdCD33_7 (VHH)
VHH: EVQLVESGGGLVQPGGSLRLSCVASGFTFKDYGMTWVRQAPGKALEWVSDINSAGDGIYYSDSVKGRFTISRDDSKGTLYLQMNSLTPEDTAIYYCAAERQRAGDVKRSLAPITAHIWGQGTQVTVSS
notes: sdAb from a naive llama phage library; also called 420; sdAb420
B2: sdCD33_9 (VHH)
VHH: QVKLEESGGGLVRAGGSLRLSCAASGGTFSTYAMAWFRQAPGKEREFVAAITWGGGSTYYEDSVKGRFTISRDNAKNTGVLQMNNLDVDDTAVYYCYAFGRSRAGDANGDYWGQGTQVTVSS
notes: sdAb from a naive llama phage library; also called 426; sdAb426
B3: sdCD33_8 (VHH)
VHH: QVQLVESGGGLVQAGGSLRLSCAASGGAFSTYTMGWFRQAPGKEREFVAAIAWTGTHTYYSDSVKGRFTISRDNDKNTVFLQMNSLKPEDTAVYYCAQASSRYRAVTDSLSENHWGPGTQVTVST
notes: sdAb from a naive llama phage library; also called 424; sdAb424

How the values were obtained:
[1] = biological target: Biotinylated CD33 protein (UniProt P20138); experiment: Octet competition on biotinylated CD33; competitor 353
Chain of Biotinylated CD33 protein (P20138 18-259 limits assumed): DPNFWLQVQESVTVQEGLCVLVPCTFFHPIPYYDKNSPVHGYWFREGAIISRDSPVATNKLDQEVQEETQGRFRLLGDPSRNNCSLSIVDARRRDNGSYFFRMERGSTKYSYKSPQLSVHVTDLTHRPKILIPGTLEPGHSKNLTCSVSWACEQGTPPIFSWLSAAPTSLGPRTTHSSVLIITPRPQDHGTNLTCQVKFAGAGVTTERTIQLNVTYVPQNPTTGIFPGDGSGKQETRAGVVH

[2] = biological target: T1, Mutant CD33-GFP M1 (W22A) on 293FT cells (UniProt P20138 18-364); experiment: FACS, mutant CD33-GFP on 293FT cells
T1 construct: whole, on cells; not shown: GFP fused to CD33
T1 sequence (P20138 18-364 W22A): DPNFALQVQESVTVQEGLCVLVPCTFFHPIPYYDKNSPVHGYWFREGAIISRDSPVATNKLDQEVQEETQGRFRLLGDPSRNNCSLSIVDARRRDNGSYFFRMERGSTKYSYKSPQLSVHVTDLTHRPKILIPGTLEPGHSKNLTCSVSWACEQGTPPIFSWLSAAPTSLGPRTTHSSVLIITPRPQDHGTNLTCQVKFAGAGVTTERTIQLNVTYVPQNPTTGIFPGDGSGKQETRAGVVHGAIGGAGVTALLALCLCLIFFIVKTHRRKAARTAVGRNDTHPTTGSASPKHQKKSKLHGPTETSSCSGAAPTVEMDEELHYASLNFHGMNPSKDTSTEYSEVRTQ

[3] = biological target: T2, Mutant CD33-GFP M2 (H45E) on 293FT cells (UniProt P20138 18-364); experiment: FACS, mutant CD33-GFP on 293FT cells
T2 construct: whole, on cells; not shown: GFP fused to CD33
T2 sequence (P20138 18-364 H45E): as the sequence (P20138 18-364 W22A) above, with A5W, H28E counted along it

[4] = biological target: T3, Mutant CD33-GFP M3 (N99A) on 293FT cells (UniProt P20138 18-364); experiment: FACS, mutant CD33-GFP on 293FT cells
T3 construct: whole, on cells; not shown: GFP fused to CD33
T3 sequence (P20138 18-364 N99A): as the sequence (P20138 18-364 W22A) above, with A5W, N82A counted along it

[5] = biological target: Mutant CD33-GFP JS23 (L23N) on 293FT cells (UniProt P20138); experiment: FACS, mutant CD33-GFP on 293FT cells
Chain of Mutant CD33-GFP JS23 (L23N) on 293FT cells (P20138 18-364 L23N): as the sequence (P20138 18-364 W22A) above, with A5W, L6N counted along it

[6] = biological target: Mutant CD33-GFP M17 (F21Y) on 293FT cells (UniProt P20138); experiment: FACS, mutant CD33-GFP on 293FT cells
Chain of Mutant CD33-GFP M17 (F21Y) on 293FT cells (P20138 18-364 F21Y): as the sequence (P20138 18-364 W22A) above, with F4Y, A5W counted along it

[7] = biological target: Mutant CD33-GFP JS25 (V25M) on 293FT cells (UniProt P20138); experiment: FACS, mutant CD33-GFP on 293FT cells
Chain of Mutant CD33-GFP JS25 (V25M) on 293FT cells (P20138 18-364 V25M): as the sequence (P20138 18-364 W22A) above, with A5W, V8M counted along it

[8] = biological target: Mutant CD33-GFP M16 (4889AII) on 293FT cells (UniProt P20138); experiment: FACS, mutant CD33-GFP on 293FT cells
[9] = biological target: Mutant CD33-GFP N20D on 293FT cells (UniProt P20138); experiment: FACS, mutant CD33-GFP on 293FT cells
Chain of Mutant CD33-GFP N20D on 293FT cells (P20138 18-364 N20D): as the sequence (P20138 18-364 W22A) above, with N3D, A5W counted along it

[10] = biological target: Mutant CD33-GFP JS24 (Q24E) on 293FT cells (UniProt P20138); experiment: FACS, mutant CD33-GFP on 293FT cells
Chain of Mutant CD33-GFP JS24 (Q24E) on 293FT cells (P20138 18-364 Q24E): as the sequence (P20138 18-364 W22A) above, with A5W, Q7E counted along it

[11] = biological target: Mutant CD33-GFP M15 (Q171A) on 293FT cells (UniProt P20138); experiment: FACS, mutant CD33-GFP on 293FT cells
Chain of Mutant CD33-GFP M15 (Q171A) on 293FT cells (P20138 18-364 Q171A): as the sequence (P20138 18-364 W22A) above, with A5W, Q154A counted along it

[12] = biological target: Mutant CD33-GFP M11 (L78T) on 293FT cells (UniProt P20138); experiment: FACS, mutant CD33-GFP on 293FT cells
Chain of Mutant CD33-GFP M11 (L78T) on 293FT cells (P20138 18-364 L78T): as the sequence (P20138 18-364 W22A) above, with A5W, L61T counted along it

[13] = biological target: Mutant CD33-GFP M9 (Y49, 50A) on 293FT cells (UniProt P20138); experiment: FACS, mutant CD33-GFP on 293FT cells
Chain of Mutant CD33-GFP M9 (Y49, 50A) on 293FT cells (P20138 other isoform, or with tags, fused parts or gaps mutant): as the sequence (P20138 18-364 W22A) above, with A5W, Y32A, Y33A counted along it

[14] = biological target: Mutant CD33-GFP M14 (E170R) on 293FT cells (UniProt P20138); experiment: FACS, mutant CD33-GFP on 293FT cells
Chain of Mutant CD33-GFP M14 (E170R) on 293FT cells (P20138 18-364 E170R): as the sequence (P20138 18-364 W22A) above, with A5W, E153R counted along it

[15] = biological target: Mutant CD33-GFP M12 (G88S) on 293FT cells (UniProt P20138); experiment: FACS, mutant CD33-GFP on 293FT cells
Chain of Mutant CD33-GFP M12 (G88S) on 293FT cells (P20138 18-364 G88S): as the sequence (P20138 18-364 W22A) above, with A5W, G71S counted along it

[16] = biological target: Mutant CD33-GFP M4 (R122D) on 293FT cells (UniProt P20138); experiment: FACS, mutant CD33-GFP on 293FT cells
Chain of Mutant CD33-GFP M4 (R122D) on 293FT cells (P20138 18-364 R122D): as the sequence (P20138 18-364 W22A) above, with A5W, R105D counted along it

[17] = biological target: Mutant CD33-GFP M5 (AEAD), quadruple mutant, on 293FT cells (UniProt P20138); experiment: FACS, mutant CD33-GFP on 293FT cells
Chain of Mutant CD33-GFP M5 (AEAD), quadruple mutant, on 293FT cells (P20138 other isoform, or with tags, fused parts or gaps mutant): as the sequence (P20138 18-364 W22A) above, with H28E, N82A, R105D counted along it

[18] = biological target: Mutant CD33-GFP M19 (348ATAI) on 293FT cells (UniProt P20138); experiment: FACS, mutant CD33-GFP on 293FT cells
[19] = biological target: Mutant CD33-GFP M10 (Y127A) on 293FT cells (UniProt P20138); experiment: FACS, mutant CD33-GFP on 293FT cells
Chain of Mutant CD33-GFP M10 (Y127A) on 293FT cells (P20138 18-364 Y127A): as the sequence (P20138 18-364 W22A) above, with A5W, Y110A counted along it

[20] = biological target: Mutant CD33-GFP M13 (R91E) on 293FT cells (UniProt P20138); experiment: FACS, mutant CD33-GFP on 293FT cells
Chain of Mutant CD33-GFP M13 (R91E) on 293FT cells (P20138 18-364 R91E): as the sequence (P20138 18-364 W22A) above, with A5W, R74E counted along it

[21] = biological target: Mutant CD33-GFP JS28 (S28L) on 293FT cells (UniProt P20138); experiment: FACS, mutant CD33-GFP on 293FT cells
Chain of Mutant CD33-GFP JS28 (S28L) on 293FT cells (P20138 18-364 S28L): as the sequence (P20138 18-364 W22A) above, with A5W, S11L counted along it

[22] = biological target: Mutant CD33-GFP M18 (353AAL) on 293FT cells (UniProt P20138); experiment: FACS, mutant CD33-GFP on 293FT cells
[23] = biological target: Biotinylated CD33 protein (UniProt P20138); experiment: Octet competition on biotinylated CD33; competitor 430
[24] = biological target: Biotinylated CD33 protein (UniProt P20138); experiment: Octet competition on biotinylated CD33; competitor 348
[25] = biological target: Biotinylated CD33 protein (UniProt P20138); experiment: Octet competition on biotinylated CD33; competitor 426
CD33 on MOLM-13 cells = biological target: T4, CD33 on MOLM-13 cells (human, UniProt P20138 18-364); experiment: FACS, MOLM-13 cells expressing CD33 against MOLM-13 CD33 knockout
T4 construct: whole, on cells; also called MOLM-13 cell line expressing CD33; wild-type MOLM-13 cells (CD33+)
T4 sequence (P20138 18-364): as the sequence (P20138 18-364 W22A) above, with A5W counted along it
Description: A naïve llama phage library was panned and screened to identify single domain antibodies that specifically recognize CD33. A MOLM-13 cell line expressing CD33 was used as a CD33-positive cell line, and a MOLM-13 cell line harboring a knockout of CD33 was used as a CD-33 negative cell line. A purified anti-human CD33 antibody was used as a positive control. Specific binding activity of identified binders was confirmed by FACS. The heavy chain variable region sequences of the identified binders are included herein.

[26] = biological target: Biotinylated CD33 protein (UniProt P20138); experiment: Octet competition on biotinylated CD33; competitor h195
[27] = biological target: CD33-GFP fusion protein, wild type (WT), on 293FT cells (UniProt P20138); experiment: FACS, WT CD33-GFP on 293FT cells
Chain of CD33-GFP fusion protein, wild type (WT), on 293FT cells (P20138 18-364): as the sequence (P20138 18-364 W22A) above, with A5W counted along it

[28] = biological target: Biotinylated CD33 protein (UniProt P20138); experiment: Octet competition on biotinylated CD33; competitor 416
[29] = biological target: Biotinylated CD33 protein (UniProt P20138); experiment: Octet competition on biotinylated CD33; competitor 389
[30] = biological target: T5, Mutant CD33-GFP M7 (R98D) on 293FT cells (UniProt P20138 18-364); experiment: FACS, mutant CD33-GFP on 293FT cells
T5 construct: whole, on cells; not shown: GFP fused to CD33
T5 sequence (P20138 18-364 R98D): as the sequence (P20138 18-364 W22A) above, with A5W, R81D counted along it

[31] = biological target: T6, Mutant CD33-GFP M6 (F43N) on 293FT cells (UniProt P20138 18-364); experiment: FACS, mutant CD33-GFP on 293FT cells
T6 construct: whole, on cells; not shown: GFP fused to CD33
T6 sequence (P20138 18-364 F43N): as the sequence (P20138 18-364 W22A) above, with A5W, F26N counted along it

[32] = biological target: T7, Mutant CD33-GFP M8 (K52A) on 293FT cells (UniProt P20138 18-364); experiment: FACS, mutant CD33-GFP on 293FT cells
T7 construct: whole, on cells; not shown: GFP fused to CD33
T7 sequence (P20138 18-364 K52A): as the sequence (P20138 18-364 W22A) above, with A5W, K35A counted along it

[33] = biological target: Biotinylated CD33 protein (UniProt P20138); experiment: Octet competition on biotinylated CD33; competitor 429
[34] = biological target: Biotinylated CD33 protein (UniProt P20138); experiment: Octet competition on biotinylated CD33; competitor 424
[35] = biological target: Biotinylated CD33 protein (UniProt P20138); experiment: Octet competition on biotinylated CD33; competitor 413
[36] = biological target: Biotinylated CD33 protein (UniProt P20138); experiment: Octet competition on biotinylated CD33; competitor 420

Binder | Octet signal [1] | FACS binding data [2] | FACS binding data [3] | FACS binding data [4] | FACS binding data [5] | FACS binding data [6] | FACS binding data [7] | FACS binding data [8] | FACS binding data [9] | FACS binding data [10] | FACS binding data [11] | FACS binding data [12] | FACS binding data [13] | FACS binding data [14] | FACS binding data [15] | FACS binding data [16] | FACS binding data [17] | FACS binding data [18] | FACS binding data [19] | FACS binding data [20] | other results
B1 | 0.183 | 98.4 | 91.5 | 98.9 | 98.7 | 99.1 | 99.5 | 98.5 | 99.1 | 99.1 | 98.9 | 72.4 | 34.6 | 98.7 | 98.7 | 97.8 | 0.15 | 99.4 | 98.1 | 98.8 | FACS binding data [21]: 99.6; FACS binding data [22]: 99.1; Octet signal [23]: 0.457; Octet signal [24]: 0.139; Octet signal [25]: 0.0276; binding result (CD33 on MOLM-13 cells): binds; Octet signal [26]: 0.579; FACS binding data [27]: 98.6; Octet signal [28]: -0.094; Octet signal [29]: 0.376; FACS binding data [30]: 74.8; FACS binding data [31]: 98.3; FACS binding data [32]: 8.64; Octet signal [33]: -0.124; Octet signal [34]: -0.0931; Octet signal [35]: 0.2
B2 | 0.259 | 99.5 | 97.7 | 99.5 | 99.2 | 99.1 | 99.7 | 99 | 99.1 | 99.4 | 99.3 | 77.8 | 1.25 | 99.2 | 99.2 | 95.9 | 1.2 | 99.8 | 96.1 | 99.3 | FACS binding data [21]: 99.7; FACS binding data [22]: 99.3; Octet signal [23]: 0.538; Octet signal [24]: 0.183; binding result (CD33 on MOLM-13 cells): binds; Octet signal [26]: 0.743; FACS binding data [27]: 99.2; Octet signal [28]: 0.304; Octet signal [36]: 0.191; Octet signal [29]: 0.53; FACS binding data [30]: 99.1; FACS binding data [31]: 99.2; FACS binding data [32]: 96.8; Octet signal [33]: 0.0225; Octet signal [34]: 0.0441; Octet signal [35]: 0.257
B3 | 0.444 | 80.1 | 97.3 | 3.43 | 97.8 | 99 | 99.6 | 98.5 | 98.3 | 99.4 | 98.7 | 65.9 | 0.23 | 98.8 | 98.8 | 98.6 | 0.07 | 99.5 | 83.7 | 99.1 | FACS binding data [21]: 99.6; FACS binding data [22]: 70.2; Octet signal [23]: 0.733; Octet signal [24]: 0.154; Octet signal [25]: 0.239; binding result (CD33 on MOLM-13 cells): binds; Octet signal [26]: 0.648; FACS binding data [27]: 98.6; Octet signal [28]: 0.086; Octet signal [36]: 0.266; Octet signal [29]: 0.356; FACS binding data [30]: 97.2; FACS binding data [31]: 98.6; FACS binding data [32]: 95.4; Octet signal [33]: 0.163; Octet signal [35]: 0.37
